Reference: US6451762B1 (Novo Nordisk A/S, priority 1997, dated 2002)
“Also recorded” adds a separate entry of the source. Marks after values point to notes of the source that are not given here.

B1: Ovalbumin: molecular size standard, Mw 43 kDa (protein, UniProt P01012 2-386, looked up)
Ovalbumin: GSIGAASMEFCFDVFKELKVHHANENIFYCPIAIMSALAMVYLGAKDSTRTQINKVVRFDKLPGFGDSIEAQCGTSVNVHSSLRDILNQITKPNDVYSFSLASRLYAEERYPILPEYLQCVKELYRGGLEPINFQTAADQARELINSWVESQTNGIIRNVLQPSSVDSQTAMVLVNAIVFKGLWEKAFKDEDTQAMPFRVTEQESKPVQMMYQIGLFRVASMASEKMKILELPFASGTMSMLVLLPDEVSGLEQLESIINFEKLTEWTSSNVMEERKIKVYLPRMKMEEKYNLTSVLMAMGITDVFSSSANLSGISSAESLKISQAVHAAHAEINEAGREVVGSAEAGVDAASVSEEFRADHPFLFCIKHIATNAVLFFGRCVSP
B2: Ribonuclease: molecular size standard, Mw 13.7 kDa (protein, UniProt P61823 27-150, looked up)
Ribonuclease pancreatic: KETAAAKFERQHMDSSTSAASSSNYCNQMMKSRNLTKDRCKPVNTFVHESLADVQAVCSQKNVACKNGQTNCYQSYSTMSITDCRETGSSKYPNCAYKTTQANKHIIVACEGNPYVPVHFDASV
B3: Catalase: molecular size standard, Mw 232 kDa (protein, UniProt P00432 2-527, looked up)
Catalase: ADNRDPASDQMKHWKEQRAAQKPDVLTTGGGNPVGDKLNSLTVGPRGPLLVQDVVFTDEMAHFDRERIPERVVHAKGAGAFGYFEVTHDITRYSKAKVFEHIGKRTPIAVRFSTVAGESGSADTVRDPRGFAVKFYTEDGNWDLVGNNTPIFFIRDALLFPSFIHSQKRNPQTHLKDPDMVWDFWSLRPESLHQVSFLFSDRGIPDGHRHMNGYGSHTFKLVNANGEAVYCKFHYKTDQGIKNLSVEDAARLAHEDPDYGLRDLFNAIATGNYPSWTLYIQVMTFSEAEIFPFNPFDLTKVWPHGDYPLIPVGKLVLNRNPVNYFAEVEQLAFDPSNMPPGIEPSPDKMLQGRLFAYPDTHRHRLGPNYLQIPVNCPYRARVANYQRDGPMCMMDNQGGAPNYYPNSFSAPEHQPSALEHRTHFSGDVQRFNSANDDNVTQVRTFYLKVLNEEQRKRLCENIAGHLKDAQLFIQKKAVKNFSDVHPEYGSRIQALLDKYNEEKPKNAVHTYVQHGSHLSAREKANL

Tests used:
[1] = Gel filtration on Sephacryl S-300 HR (aggregate formation, method 1); format: physicochemical; parameters: key to KAV: KAV=(VE-V0)/(VT-V0); fraction of available elution volume; conditions: for KAV: Sephacryl S-300 HR; for formation of high molecular weight soluble aggregates: gel filtration at neutral pH, formulation used (Table 1)
Method: A pH neutral aqueous buffer system is used in the gel filtration and the insulin derivatives in the aggregated state are applied to the column in the form of a pharmaceutical preparation at a concentration of 600 nmol insulin/ml. […] However, when the actual state of aggregation in a pharmaceutical preparation is to be assessed, the medium of the preparation, exclusive the Zn^2+ which is insulin bound, is used as the eluent for the gel filtration. A column of 28×1 cm is eluted at a rate of 15 ml/h. Insulin derivatives were injected (200 μl) as a standard formulation comprising 600 μM derivative, 200 or 300 μM Zn^2+, 20 mM NaCl (or varied), 16 mM phenol, 16 mM m-cresol, 7 mM sodium phosphate at pH 7.5. Exclusion limit of Sephacryl® S-300 HR is stated by the manufacturer, Pharmacia, as a molecular weight of 1,500 kDa for globular proteins and 400 kDa for linear dextrans. In practice the elution of solutes of different size is characterised by the available volume as KAV values: KAV=(VE-V0)/(VT-V0) where VE is elution volume, V0 is void volume, e.g. elution volume of blue dextran, VT is total volume. Thus, the KAV value is independent of column dimension. […]

[2] = Disappearance after subcutaneous injection in pigs; conditions: pig, in vivo, sc
Description: The gel filtration experiment using the conditions prescribed in this section is the direct physico-chemical method to reveal the potential aggregate formation property of an insulin derivative. Disappearance after subcutaneous injection in pigs reflects the combination of the albumin binding and polymer formation properties of the insulin derivative, besides a variety of biological factors.

[3] = Gel filtration method 2 on Superose 6HR (HPLC, 37° C.); format: physicochemical; conditions: 140 mM NaCl, 10 mM tris, pH 7.4; for KAV (Superose 6HR) 2Zn^2+/6 ins: 2 Zn2+/6 ins; for KAV (Superose 6HR) 3Zn^2+/6 ins: 3 Zn2+/6 ins; for KAV (Superose 6HR): standards
Method: An alternative method to measure the capability of insulin derivatives of forming soluble high molecular weight aggregates was developed, suitable for HPLC equipment. The column dimensions, injection volume, and flow rate correspond to the first method, whereas the temperature is increased to 37° C. and the phosphate buffer is changed to trishydroxymethylaminomethan hydrochloride and additional sodium chloride. The aggregated state of insulin is defined to elute before the gel filtration standard aldolase like in the first method.

[4] = molecular target: Albumin (Homo sapiens, UniProt P02768)
[5] = Gel filtration on Sephacryl S-300 HR (aggregate formation, method 1); format: physicochemical; parameters: key to KAV: KAV=(VE-V0)/(VT-V0); fraction of available elution volume
[6] = pH 7.4 eluent, standards applied dissolved in water
[7] = eluent 125 mM NaCl, 20 mM sodium phosphate pH 7.4, sample 600 μM derivative, 200 μM Zn2+, 0-20 mM NaCl, phenol, m-cresol, pH 7.5

| Molecule | Disappearance in pigs, T50% [2] | KAV (Superose 6HR) 2Zn^2+/6 ins [3] | KAV (Superose 6HR) 3Zn^2+/6 ins [3] | Albumin binding Kass [4] | further results |
| --- | --- | --- | --- | --- | --- |
| Albumin: molecular size standard, Mw 67 kDa [reference compound] | – | – | – | – | KAV [1, 6]: ~0.38 |
| Lys^B29(N^εlithocholyl-γ-Glu-) des(B30) human insulin [Lys^B29(N^ε lithocholyl-γ-Glu-) des(B30)] | 22.8 h | 0.00 | −0.01 | – | KAV [1, 7]: 0.04*; formation of high molecular weight soluble aggregates [1]: capable of forming soluble high molecular weight aggregates; formation of high molecular weight soluble aggregates ([1]; listed as Ly B^29(N^εlithocholyl-γ-Glu-) des(B30) human insulin): capable of forming high molecular weight soluble aggregates; Disappearance T50% [2]: 22.8 h |
| Asp^A21 Lys^B29(N^ε-tetradecanoyl-) des(B30) HI | 16.4 h | 0.55 | 0.46 | 0.97 10^5M^−1 | – |
| Lys^B29(N^ε ω-carboxynonadecanoyl) des(B30) | – | – | – | 36 × 10^5 (mol/l)^−1 | KAV [1, 7]: 0.04; Disappearance T50% [2]: 21.9 h |
| Lys^B29(N^εtetradecanoyl) des(B30) human insulin [Lys^B29(N^ε tetradecanoyl) des(B30), reference compound] | – | 0.58 | 0.56 | – | KAV [1, 7]: 0.51; formation of high molecular weight soluble aggregates [1]: incapable of forming soluble high molecular weight aggregates; Disappearance T50% [2]: 14.3 h |
| Lys^B29(N^ε-lithocholoyl-β-Asp-) des(B30) HI | – | 0.18 | 0.11 | – | – |
| Lys^B29(N^ε cholesteryloxycarbonyl) | – | – | – | – | KAV [1, 7]: 0.00 |
| Lys^B29(N^ε-lithocholoyl-) des(B30) HI | >34 h | −0.01 | 0.23 | 0.38 10^5M^−1 | – |
| Lys^B29(N^εlithocholyl-α-Glu-) des(B30) human insulin | – | – | – | 0.3 × 10^5 (mol/l)^−1 | KAV [1, 7]: 0.53; formation of high molecular weight soluble aggregates [1]: only the first forms aggregates; also recorded: incapable of forming soluble high molecular weight aggregates; Disappearance T50% [2]: 11.8 h |
| Lys^B29(N^ε-lithocholoyl-β-Ala-) des(B30) HI | – | 0.00 | 0.13 | – | – |
| Lys^B29(N^ε decanoyl) | – | – | – | 0.06 × 10^5 (mol/l)^−1 | KAV ([1]; eluent 125 mM NaCl, 20 mM sodium phosphate pH 7.4, sample 600 μM, 300 μM Zn2+): 0.67; Disappearance T50% [2]: 5.1 h |
| Aldolase: molecular size standard, Mw 158 kDa [reference compound] | – | – | – | – | KAV [1, 6]: ~0.32; KAV (Superose 6HR) [3]: 0.50 |
| Ferritin [reference compound] | – | – | – | – | KAV [1, 6]: 0.19; KAV (Superose 6HR) [3]: 0.40 |
| Lys^B29(N^ε-deoxycholoyl-γ-Glu-) des(B30) HI | 13.9 h | 0.20 | 0.07 | 0.03 10^5M^−1 | – |
| B9Asp, B27Glu human insulin [reference compound] | – | – | – | 0 (mol/l)^−1 | KAV [1, 6]: 0.71; KAV ([1]; pH 7.4 eluent, standards applied dissolved in water, listed as monomeric form of insulin): about 0.71; Disappearance T50% [2]: (1) h; KAV (Superose 6HR) [3]: 0.73 |
| Lys^B29(N^ε-dehydrolithocholoyl-) des(B30) HI | >34 h | 0.05 | 0.03 | 0.26 10^5M^−1 | – |
| Lys^B29(N^εω-carboxyheptadecanoyl) des(B30) human insulin | – | – | – | 25 × 10^5 (mol/l)^−1 | KAV [1, 7]: 0.05; KAV ([1]; medium of the preparation as eluent: 5 mM sodium phosphate pH 7.5, 10 mM NaCl, 16 mM phenol, 16 mM m-cresol, 1.6% glycerol, 2-3 Zn2+/hexamer): about 0.45; formation of high molecular weight soluble aggregates [1]: capable of forming high molecular weight soluble aggregates; degree of aggregation in the published formulation ([1]; medium of the preparation as eluent, 10 mM NaCl, 2-3 Zn2+/hexamer): no high molecular weight aggregates of insulin derivatives was present; Disappearance T50% [2]: 18.7 h; formation of aggregates ([5]; gel filtration, absence of Zn2+ (0 Zn2+/hexamer)): aggregates are not formed |
| Lys^B29(N^ε-hexadecanoyl-α-amido-γ-Glu-) des(B30) HI | 15.3 h | 0.38 | 0.41 | 0.56 10^5M^−1 | – |
| Lys^B29(N^ε-lithocholoyl-γ-aminobutanoyl-) des(B30) HI | – | 0.06 | 0.00 | – | – |
| Lys^B29(N^ε-lithocholoyl-α-amido-γ-Glu-) des(B30) HI | >34 h | −0.02 | 0.00 | 0.23 10^5M^−1 | – |
| Lys^B29(N^ε-cholanoyl-) des(B30) HI | 20.1 h | 0.40 | 0.17 | 0.48 10^5M^−1 | – |
| Lys^B29(N^ε lithocholyl | – | – | – | – | KAV ([5]; Sephacryl S-300 HR, pH 7.4 eluent, Zinc free): 0.74 |
| Thyroglobulin: molecular size standard, Mw 669 kDa [reference compound] | – | – | – | – | KAV [1, 6]: 0.08; KAV (Superose 6HR) [3]: 0.28 |
| B1 | – | – | – | – | KAV (Superose 6HR) [3]: 0.58 |
| B2 | – | – | – | – | KAV [1, 6]: 0.63; KAV (Superose 6HR) [3]: 0.72 |
| B3 | – | – | – | – | KAV [1, 6]: 0.30 |
